Reference: publication PMC8977143, “PDIA3/ERp57 promotes a matrix-rich secretome that stimulates fibroblast adhesion through CCN2” (American Journal of Physiology - Cell Physiology, 2022)

Molecular target: T1, Native human platelet thrombospondin-1 (human, UniProt P07996 19-1170)
T1 construct: thrombospondin-1 (TSP1), human, native protein from platelets; also called TSP1; native human TSP1; source: bought: Cell Sciences Inc. (Cat. No. CSL19832A), native from human platelets
Experiment: ELISA; solid-phase binding: PDIA3/ERp57 or CCN2 coated at various concentrations on Immulon 2Hb wells in TBS with 2 mM CaCl2 and 15 µM ZnSO4, 16 h at 4°C; blocked with 5% BSA; 50 µg/mL (388 µM as printed) native human TSP1 added for 1 h at room temperature; detected with anti-TSP1 (C9) and anti-mouse-IgG-HRP, absorbance at 450 nm
Conditions: both partners purified

T1 sequence (P07996 19-1170): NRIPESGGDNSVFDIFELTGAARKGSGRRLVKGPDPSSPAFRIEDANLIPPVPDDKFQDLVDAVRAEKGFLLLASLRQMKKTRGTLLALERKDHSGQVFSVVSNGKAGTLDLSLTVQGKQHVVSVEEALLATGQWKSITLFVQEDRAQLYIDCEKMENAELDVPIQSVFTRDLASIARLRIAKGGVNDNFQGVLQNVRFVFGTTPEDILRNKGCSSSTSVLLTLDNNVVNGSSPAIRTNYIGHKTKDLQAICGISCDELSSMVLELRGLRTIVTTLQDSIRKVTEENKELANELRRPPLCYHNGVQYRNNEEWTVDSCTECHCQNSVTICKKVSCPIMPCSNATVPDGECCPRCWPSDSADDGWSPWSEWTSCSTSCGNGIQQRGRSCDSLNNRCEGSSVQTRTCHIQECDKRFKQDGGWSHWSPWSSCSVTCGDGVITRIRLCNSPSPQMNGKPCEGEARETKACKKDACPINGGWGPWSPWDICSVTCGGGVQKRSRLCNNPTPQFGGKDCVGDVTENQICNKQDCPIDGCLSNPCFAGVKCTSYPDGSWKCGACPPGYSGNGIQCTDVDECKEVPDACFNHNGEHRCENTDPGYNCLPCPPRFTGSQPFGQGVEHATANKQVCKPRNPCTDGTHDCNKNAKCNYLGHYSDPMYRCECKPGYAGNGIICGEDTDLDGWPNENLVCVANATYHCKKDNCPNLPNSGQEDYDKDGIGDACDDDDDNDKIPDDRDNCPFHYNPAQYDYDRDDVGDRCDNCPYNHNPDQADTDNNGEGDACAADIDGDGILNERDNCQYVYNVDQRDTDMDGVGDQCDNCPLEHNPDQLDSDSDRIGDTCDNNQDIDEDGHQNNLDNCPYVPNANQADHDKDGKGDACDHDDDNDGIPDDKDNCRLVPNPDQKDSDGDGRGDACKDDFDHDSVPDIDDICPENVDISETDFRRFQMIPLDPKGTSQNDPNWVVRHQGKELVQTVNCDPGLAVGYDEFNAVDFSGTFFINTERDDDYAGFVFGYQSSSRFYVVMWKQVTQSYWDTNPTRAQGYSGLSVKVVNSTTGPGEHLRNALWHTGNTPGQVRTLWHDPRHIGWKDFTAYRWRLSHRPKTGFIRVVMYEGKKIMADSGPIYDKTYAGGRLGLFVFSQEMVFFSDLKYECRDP

binding result | Binder
binds | Recombinant human PDIA3/ERp57 (enzyme, UniProt P30101 25-505, looked up, protein disulfide isomerase A3 (PDIA3/ERp57), human, recombinant; Limits, host and tags are told only by the supplier's data sheet; source: bought: Abcam (Cat. No. ab92937)) SDVLELTDDNFESRISDTGSAGLMLVEFFAPWCGHCKRLAPEYEAAATRLKGIVPLAKVDCTANTNTCNKYGVSGYPTLKIFRDGEEAGAYDGPRTADGIVSHLKKQAGPASVPLRTEEEFKKFISDKDASIVGFFDDSFSEAHSEFLKAASNLRDNYRFAHTNVESLVNEYDDNGEGIILFRPSHLTNKFEDKTVAYTEQKMTSGKIKKFIQENIFGICPHMTEDNKDLIQGKDLLIAYYDVDYEKNAKGSNYWRNRVMMVAKKFLDAGHKLNFAVASRKTFSHELSDFGLESTAGEIPVVAIRTAKGEKFVMQEEFSRDGKALERFLQDYFDGNLKRYLKSEPIPESNDGPVKVVVAENFDEIVNNENKDVLIEFYAPWCGHCKNLEPKYKELGEKLSKDPNIVIAKMDATANDVPSPYEVRGFPTIYFSPANKKLNPKKYEGGRELSDFISYLQREATNPPVIQEEKPKKKKKAQEDL
binds | Recombinant human CCN2 (natural protein, UniProt P29279 27-349, looked up, cell communication network 2 (CCN2/CTGF), human, recombinant; Limits, host and tags are told only by the supplier's data sheet; also called cell communication network 2; CTGF; source: bought: R&D (Cat. No. 9190-CC-050)) QNCSGPCRCPDEPAPRCPAGVSLVLDGCGCCRVCAKQLGELCTERDPCDPHKGLFCHFGSPANRKIGVCTAKDGAPCIFGGTVYRSGESFQSSCKYQCTCLDGAVGCMPLCSMDVRLPSPDCPFPRRVKLPGKCCEEWVCDEPKDQTVVGPALAAYRLEDTFGPDPTMIRANCLVQTTEWSACSKTCGMGISTRVTNDNASCRLEKQSRLCMVRPCEADLEENIKKGKKCIRTPKISKPIKFELSGCTSMKTYRAKFCGVCTDGRCCTPHRTTTLPVEFKCPDGEVMKKNMMFIKTCACHYNCPGDNDIFESLYYRKMYGDMA
